Common to all, as to assay type: cell-based, human
In experiment [1] the test system is immature MoDCs. Description: Activin-A ELISA of CD40L-stimulated MoDCs with follistatin. To be noted: CD40L 2 μg/ml. The procedure: The early autocrine/paracrine release of activin-A by MoDCs was viewed as a possible potentiating feedback loop to further activin-A production. To test this, immature MoDCs were cultured with 2 μg/ml of CD40L, together with increasing concentrations of follistatin (0-400 ng/ml). Supernatants were collected over a 6 hour period and activin-A was qualified in a standard ELISA.

For experiment [2], the system named is MoDCs. Description: IL-6 and cytokine ELISA of stimulated MoDCs with follistatin. To be noted: for IL-6 production: follistatin 0, 20, 100 ng/ml. The method, then:
Prior studies had shown that, in an in vivo LPS challenge model, activin-A is released into the circulatory system rapidly, and can be detected prior to IL-6, and just prior to TNF-α release. […] This was tested by combining MoDCs with trimeric CD40L, or LPS, at a fixed concentration, together with varying concentrations of follistatin (0, 20, and 100 ng/ml) MoDCs were combined with GM-CSF and IL-4 as a control. Supernatants were collected after 4 hours, 24 hours, and 48 hours of culture, and then assayed for IL-6 via a standard ELISA.
Further experiments were then carried out, using trimeric CD40L or concentrations of LPS and follistatin that were even higher (1 ng/ml-150 ng/ml for LPS, and 400 ng/ml for follistatin).

Experiment [3] relates to MoDCs. As to the kind of experiment: qRT-PCR of IL-6 mRNA in MoDCs with follistatin. As to conditions: follistatin 400 ng/ml. The method, then:
When qRT-PCR was carried out, a 15 fold increase in IL-6 mRNA expression was observed 2 hours after MoDC stimulation and the 400 ng/ml dose of follistatin, with a peak at 4 hours, (30 fold), with a decrease over 6-24 hours.
A general note: Real-time PCR tracks product formation cycle by cycle.

For experiment [4], the system named is MoDCs. As to the kind of experiment: IL-10 secretion and mRNA in MoDCs with follistatin. An excerpt:
Supernatants were screened, via standard ELISAs, for a large array of cytokines and chemokines, including pleiotropic IL-10.

Experiment [5] relates to MoDCs. As to the kind of experiment: IL-12p35 expression, IL-12p70 and TNF-α secretion by CD40L-stimulated MoDCs. The method, then:
In view of this, the experiments were extended to investigate the impact, if any on IL-12p70, a potent TH1 cytokine, and pro-inflammatory TNF-α. The experiments were carried out in the same way as the prior experiments were.

Experiment [6] relates to MoDC. Description: Chemokine secretion by CD40L-stimulated MoDCs with follistatin. To be noted: 24 hours, increasing follistatin. The procedure:
MoDC culture supernatants were screened following 24 hours of culture, using controls, and increasing concentration of follistatin, as described supra. Assays were carried out, following standard methods, for IL-12p70, TNF-α, IL-8, IP-10, RANTES, and MCP-1.

In experiment [7] the test system is CD8+ T cells co-cultured with MoDCs. As to conditions: follistatin 400 ng/ml, nine days, IFN-γ secretion and CD107a expression.
Experiment [8] relates to MoDCs co-cultured with NK cells. As to the kind of experiment: IFN-γ production in MoDC and NK cell co-culture with follistatin. The procedure:
The dendritic cells were obtained by culturing CD14^+ monocytes with GM-CSF and IL-4, for 6-7 days, which are standard culture conditions. A sample of 5×10^4 MoDCs were co-cultured with 1×10^5 NK cells, either with or without 400 ng/ml follistatin. As controls, samples of each type of cell were cultured individually.
IFN-γ production was measured, as described supra.
To test this, 5×10^4 immature MoDCs were cultured, in 96 well-plates, in standard media supplemented with 20 U/ml IL-2 and 20 ng/ml GM-CSF only, or with the addition of 1×10^5 autologous NK cells. In addition, the cells were stimulated with IL-12 and poly I:C. In addition, 400 ng/ml of follistatin was added to cultures in order to neutralize activin-A.
After 24 hours, supernatants were collected, and assayed for IFNγ via a standard ELISA.

The mark [9] stands for this setting: CD40L-stimulated MoDCs with follistatin.

B1: follistatin (protein, UniProt P19883 30-344, looked up)
Follistatin: GNCWLRQAKNGRCQVLYKTELSKEECCSTGRLSTSWTEEDVNDNTLFKWMIFNGGAPNCIPCKETCENVDCGPGKKCRMNKKNKPRCVCAPDCSNITWKGPVCGLDGKTYRNECALLKARCKEQPELEVQYQGRCKKTCRDVFCPGSSTCVVDQTNNAYCVTCNRICPEPASSEQYLCGNDGVTYSSACHLRKATCLLGRSIGLAYEGKCIKAKSCEDIQCTGGKKCLWDFKVGRGRCSLCDELCPDSKSDEPVCASDNATYASECAMKEAACSSGVLLEVKHSGSCNSISEDTEEEEEDEDQDYSFPISSILEW
With B1, the activin-A production result in experiment [1] (follistatin 0-400 ng/ml, first 2-4 hours) is on record as “dose dependent decreases in activin-A production”. For the same molecule, the activin-A production result in experiment [1] (follistatin 400 ng/ml, at 6 hours) is “unable to abrogate the level of activin-A production”. The IL-6 production result in experiment [2] (CD40L-stimulated MoDCs) is recorded as “as follistatin concentration increased, so too did IL-6 production”. In experiment [2] (LPS 1 ng/ml-150 ng/ml, follistatin 400 ng/ml), the “LPS mediated IL-6 production” value is “not LPS mediated IL-6 production, at any dose”. For the same molecule, the IL-6 production entry in experiment [2] (LPS-stimulated MoDCs) is “did not influence its production”. For the same molecule, the “CD40L mediated production of IL-6” value in experiment [2] (follistatin 400 ng/ml) was “dramatically enhanced”. Besides, in experiment [2] (follistatin alone, no other stimulus), the MoDC cytokine production result is given as “did not induce MoDC cytokine production”. The “increase in IL-6 mRNA expression” value in experiment [3] (2 hours after MoDC stimulation) is reported as 15 fold. Moreover, the “increase in IL-6 mRNA expression” value in experiment [3] (peak at 4 hours) was determined as 30 fold. In addition, the “IL-10 mRNA expression” value in experiment [4] (CD40L-stimulated MoDCs with follistatin, peak at 4 hours) is on record as “increased IL-10 mRNA expression”. Further, in experiment [4] (MoDCs with follistatin), the “CD40L mediated IL-10 secretion” value is recorded as “enhanced IL-10 secretion by the MoDCs in a dose dependent manner” and the “E. coli mediated IL-10 secretion” value is “did not impact”. In experiment [5] (setting [9]), the IL-12p70 protein secretion entry is recorded as “dose dependent enhancement” and the TNF-α secretion entry was “dose dependent enhancement peaking at 24 hours”. In addition, the “IL-12p35 expression vs CD40L alone” value in experiment [5] (at 24 hours, CD40L plus follistatin) is “at least 15 fold”. For the same molecule, the IL-12p70 secretion entry in experiment [5] (follistatin alone, without any other stimulus) is listed as “did not induce IL-12p70 secretion”. Moreover, in experiment [6], the IL-8 production result is on record as “substantially enhanced”, the MCP-1 production entry is given as “substantially enhanced” and the RANTES production entry is recorded as “substantially enhanced”. For the same molecule, in experiment [7], the “percentage of influenza matrix specific CD8+ T cells displaying effector function” value is recorded as “significantly increased” and the “total number of influenza matrix specific CD8+ T cells displaying effector function” value is “significantly increased”. The IFN-γ production result in experiment [8] (MoDCs co-cultured with NK cells, follistatin 400 ng/ml) was “increased markedly”. In addition, the IFN-γ production result in experiment [8] (NK cells alone stimulated with cytokines) is reported as “had no impact”. For the same molecule, in experiment [8] (immature MoDCs and autologous NK cells, IL-12 and poly I:C, follistatin 400 ng/ml, 24 hours), the IFN-γ production result was “significant increases in IFN-γ production”.

For the origin of these results see patent US20100279409A1, “METHOD FOR MODIFYING CELLUAR IMMUNE RESONSE BY MODULATING ACTIVIN ACTIVITY” (priority 2007, published 2010).
